Reference: patent publication US20210355194A1 (TWIST BIOSCIENCE, published 2021)

Biological target: T1, Acro SARS-CoV-2 (COVID-19) S1 protein (SARS-CoV-2, UniProt P0DTC2 16-685)
T1 construct: also called SARS-CoV-2 S1
Experiment: SPR

Row | Binder | Kd [nM]
1 | variant 5-22 (Fc fusion) VHH: EVQLVESGGGLVQPGGSLRLSCAASGFTFNVFAMGWFRQAPGKEREFVAAINWSDSRTDYADSVKGRFTISADNSKNTAYLQMNSLKPEDTAVYYCASGSDNRARELSRYEYVWGQGTLVTVSS | 109
2 | variant 5-63 (Fc fusion) VHH: EVQLVESGGGLVQPGGSLRLSCAASGFSLDYYDMGWFRQAPGKEREFVAALGWSGGSTDYADSVKGRFTISADNSKNTAYLQMNSLKPEDTAVYYCAAGNGGRYGIVERWGQGTLVTVSS | 10.5
3 | variant 5-32 (Fc fusion) VHH: EVQLVESGGGLVQPGGSLRLSCAASGFTPDNYAMGWFRQAPGKEREFVAALGWSGVTTYHYYADSVKGRFTISADNSKNTAYLQMNSLKPEDTAVYYCASDESDAANWGQGTLVTVSS | 22.4
4 | variant 5-26 (Fc fusion) VHH: EVQLVESGGGLVQPGGSLRLSCAASGRTISSYIMGWFRQAPGKERELVARIYTGGDTIYADSVKGRFTISADNSKNTAYLQMNSLKPEDTAVYYCAARTSYNGRYDYIDDYSWGQGTLVTVSS | 21800
5 | variant 5-16 (Fc fusion) VHH: EVQLVESGGGLVQPGGSLRLSCAASGRTHSIYPMGWFRQAPGKERELVAAIHSGGATVYADSVKGRFTISADNSKNTAYLQMNSLKPEDTAVYYCAARRWIPPGPIWGQGTLVTVSS | 50.2
6 | variant 6-2 (Fc fusion) VHH: EVQLVESGGGLVQPGGSLRLSCAASGFTMSSSWMGWFRQAPGKEREFVTVISGVGTSYADSVKGRFTISADNSKNTAYLQMNSLKPEDTAVYYCARGPDSSGYGFDYWGQGTLVTVSS | 29.9
7 | variant 5-27 (Fc fusion) VHH: EVQLVESGGGLVQPGGSLRLSCAASGRANSINWMGWFRQAPGKEREFVATITPGGNTNYADSVKGRFTISADNSKNTAYLQMNSLKPEDTAVYYCAAAAGSTWYGTLYEYDWGQGTLVTVSS | 92.9
8 | variant 5-51 (Fc fusion) VHH: EVQLVESGGGLVQPGGSLRLSCAASGRPNSINWMGWFRQAPGKERQFVATITPGGNTNYADSVKGRFTISADNSKNTAYLLMNSLKPEDTAVYYCAAAAGTTWYGTLYEYDWGQGTLVTVSS | 25.5
9 | variant 5-52 (Fc fusion) VHH: EVQLVESGGGLVQPGGSLRLSCAASGEKFSDHWMGWFRQAPGKEREFVATITFSGARTAYADSVKGRFTISADNSKNTAYLQMNSLKPEDTAVYYCAALIKPSSTDRIFEEWGQGTLVTVSS | 99
10 | variant 5-42 (Fc fusion) VHH: EVQLVESGGGLVQPGGSLRLSCAASGFTPDDYAMGWFRQAPGKEREFVASIGYSGRSNSYNYYADSVKGRFTISADNSKNTAYLQMNSLKPEDTAVYYCAIAHGSSTYNWGQGTLVTVSS | 116
11 | variant 6-3 (Fc fusion, VHH-Fc) VHH: EVQLVESGGGLVQPGGSLRLSCAASGFTFSPSWMGWFRQAPGKEREFVATINEYGGRNYADSVKGRFTISADNSKNTAYLQMNSLKPEDTAVYYCARVDRDFDYWGQGTLVTVSS | 12.4
12 | variant 6-30 (Fc fusion) VHH: EVQLVESGGGLVQPGGSLRLSCAASGFAFGDSWMGWFRQAPGKEREFVATINWSGVTAYADSVKGRFTISADNSKNTAYLQMNSLKPEDTAVYYCARADGYFDYWGQGTLVTVSS | 11.8
13 | variant 6-77 (Fc fusion) VHH: EVQLVESGGGLVQPGGSLRLSCAASGFTFDRSWMGWFRQAPGKEREFVAAVTEGGTTSYADSVKGRFTISADNSKNTAYLQMNSLKPEDTAVYYCARADYDFDYWGQGTLVTVSS | 24.6
14 | variant 5-28 (Fc fusion) VHH: EVQLVESGGGLVQPGGSLRLSCAASGGTFSVFAMGWFRQVPGKERELVAEITAGGSTYYADSVKGRFTISADNSKNTAYLQMNSLKPEDTAVYYCAVDGPFGWGQGTLVTVSS | 40
15 | variant 5-13 (Fc fusion) VHH: EVQLVESGGGLVQPGGSLRLSCAASGFTFDYYTMGWFRQAPGKEREFVAAIRSSGGLFYADSVKGRFTISADNSKNTAYLQMNSLKPEDTAVYYCAAYLDGYSGSWGQGTLVTVSS | 37.5
16 | variant 5-49 (Fc fusion) VHH: EVQLVESGGGLVQPGGSLRLSCAASGRTSTVNGMGWFRQAPGKEREFVASISQSGAATAYADSVKGRFTISADNSKNTAYLQMNSLKPEDTAVYYCAADRTYSYSSTGYYWGQGTLVTVSS | 74.5
17 | variant 5-60 (Fc fusion) VHH: EVQLVESGGGLVQPGGSLRLSCAASGRSFSSHRMGWFRQAPGKEREFVAAIMWSGSHRNYADSVKGRFTISADNSKNTAYLQMNSLKPEDTAVYYCAAIAYEEGVYRWDWGQGTLVTVSS | 29.4
18 | variant 5-67 (Fc fusion) VHH: EVQLVESGGGLVQPGGSLRLSCAASGFNVNDYAMGWFRQAPGKEREFVAGITSSVGVTNYADSVKGRFTISADNSKNTAYLQMNSLKPEDTAVYYCAADIFFVNWGRGTLVTVSS | 22.1

Row | Binder | Kd [nM]
19 | variant 5-64 (Fc fusion) VHH: EVQLVESGGGLVQPGGSLRLSCAASGTSISNRVMGWFRQAPGKERELVARIYTGGDTLYADSVKGRFTISADNSKNTAYLQMNSLKPEDTAVYYCAARKIYRSLSYYGDYDWGQGTLVTVSS | 346
20 | variant 5-29 (Fc fusion) VHH: EVQLVESGGGLVQPGGSLRLSCAASGFTFDDYPMGWFRQAPGKEREGVASVLRGGYTWYADSVKGRFTISADNSKNTAYLQMNSLKPEDTAVYYCAKDWATGLAWGQGTLVTVSS | 42.4
21 | variant 5-21 (Fc fusion) VHH: EVQLVESGGGLVQPGGSLRLSCAASGGTFTTYHMGWFRQAPGKEREFVAHISTGGATNYADSVKGRFTISADNSKNTAYLQMNSLKPEDTAVYYCATFPAIVTDSDYDLGNDWGQGTLVTVSS | 1070
22 | variant 6-4 (Fc fusion) VHH: EVQLVESGGGLVQPGGSLRLSCAASGFTRDYYTMGWFRQAPGKEREFVAAISRSGSLTSYADSVKGRFTISADNSKNTAYLQMNSLKPEDTAVYYCANLAYYDSSGYYDYWGQGTLVTVSS | 45.8
23 | variant 6-1 (Fc fusion) VHH: EVQLVESGGGLVQPGGSLRLSCAASGRTFGNYNMGWFRQAPGKEREFVATINSLGGTSYADSVKGRFTISADNSKNTAYLQMNSLKPEDTAVYYCARVDYYMDVWGQGTLVTVSS | 35.8
24 | variant 5-47 (Fc fusion) VHH: EVQLVESGGGLVQPGGSLRLSCAASGFTFGSYDMGWFRQAPGKEREFVTAINWSGARTAYADSVKGRFTISADNSKNTAYLQMNSLKPEDTAVYYCAARSVYSYEYNWGQGTLVTVSS | 27.7
25 | variant 5-15 (Fc fusion) VHH: EVQLVESGGGLVQPGGSLRLSCAASGFTFDGAAMGWFRQAPGKEREFVATIRWTNSTDYADSVKGRFTISADNSKNTAYLQMNSLKPEDTAVYYCARGRYGIVERWGQGTLVTVSS | 96.2
26 | variant 5-65 (Fc fusion) VHH: EVQLVESGGGLVQPGGSLRLSCAASGNIDRLYAMGWFRQAPGKEREGVAAIDSDGSTDYADSVKGRFTISADNSKNTAYLQMNSLKPEDTAVYYCAALIDYGLGFPIEWGQGTLVTVSS | 353
27 | variant 5-50 (Fc fusion) VHH: EVQLVESGGGLVQPGGSLRLSCAASGFSLDYYGMGWFRQAPGKEREFVAAITSGGTPHYADSVKGRFTISADNSKNTAYLQMNSLKPEDTAVYYCASAYNPGIGYDWGQGTLVTVSS | 60.5
28 | variant 5-23 (Fc fusion) VHH: EVQLVESGGGLVQPGGSLRLSCAASGSIFSIDVMGWFRQAPGKEREFVAAISWSGESTLYADSVKGRFTISADNSKNTAYLQMNSLKPEDTAVYYCAAFDGYSGSDWGQGTLVTVSS | 84.8
29 | variant 5-3 (Fc fusion) VHH: EVQLVESGGGLVQPGGSLRLSCAASGSIFSIDVMGWFRQAPGKEREFVAGISWSGDSTLYADSVKGRFTISADNSKNTAYLQMNSLKPEDTAVYYCAAFDGYTGSDWGQGTLVTVSS | 64.6
30 | variant 5-55 (Fc fusion) VHH: EVQLVESGGGLVQPGGSLRLSCAASGIDVNRNAMGWFRQAPGKEREFVAAITWSGGWRYYADSVKGRFTISADNSKNTAYLQMNSLKPEDTAVYYCATTFGDAGIPDQYDFGWGQGTLVTVSS | 63.5
31 | variant 5-17 (Fc fusion) VHH: EVQLVESGGGLVQPGGSLRLSCAASGPTFSIYAMGWFRQAPGKEREFVAGIRWSDVYTQYADSVKGRFTISADNSKNTAYLQMNSLKPEDTAVYYCALDIDYRDWGQGTLVTVSS | 3630
32 | variant 5-39 (Fc fusion) VHH: EVQLVESGGGLVQPGGSLRLSCAASGVTLDLYAMGWFRQAPGKEREFVAGIRWTDAYTEYADSVKGRFTISADNSKNTAYLQMNSLKPEDTAVYYCAVDIDYRDWGQGTLVTVSS | 118
33 | variant 5-68 (Fc fusion) VHH: EVQLVESGGGLVQPGGSLRLSCAASGFTFDHYTMGWFRQAPGKEREFVAAISGSENVTSYADSVKGRFTISADNSKNTAYLQMNSLKPEDTAVYYCAAEPYIPVRTMRHMTFLTWGQGTLVTVSS | 111
34 | variant 5-56 (Fc fusion) VHH: EVQLVESGGGLVQPGGSLRLSCAASGRTFSSNMGWFRQAPGKEREFVARIFGGDRTLYADSVKGRFTISADNSKNTAYLQMNSLKPEDTAVYYCADINGDWGQGTLVTVSS | 54.3
35 | variant 5-59 (Fc fusion) VHH: EVQLVESGGGLVQPGGSLRLSCAASGLTFSLYRMCWFRQAPGKEREEVSCISNIDGSTYYADSVKGRFTISADNSKNTAYLQMNSLKPEDTAVYYCAADLLGDSDYEPSSGFGWGQGTLVTVSS | 113
